Results on four substances are retold here after paper PMC3763527.

Holding throughout (assay): optical tweezers force spectroscopy; single-chain clamp held by two 777-bp DNA handles between streptavidin on a biotinylated quartz slide and an anti-digoxigenin-coated 2 µm bead in the laser trap; stage moved at 100 nm/s; trap stiffness 0.15 pN/nm; buffer B (100 mM sodium phosphate, 150 mM sodium chloride, pH 7.2); rupture of the one subunit-subunit interface that can open within the chain

Assay [1] deals with single-chain E. coli β-clamp with cysteines at E64 (first subunit) and E314 (second subunit) (E. coli).
Assay [2] concerns the target single-chain E. coli β-clamp with cysteines at G102 (first subunit) and E298 (second subunit) (E. coli).
The target of assay [3] is single-chain S. cerevisiae PCNA with cysteines at D122 (first subunit) and D223 (third subunit) (S. cerevisiae).
Assay [4] addresses single-chain S. cerevisiae PCNA with cysteines at K107 (first subunit) and F185 (third subunit) (S. cerevisiae).

On to “single-chain E. coli β-clamp with cysteines at E64 (first subunit) and E314 (second subunit)”, for which the rupture force of the subunit interface in assay [1] worked out at 5.8 pN.

“single-chain E. coli β-clamp with cysteines at G102 (first subunit) and E298 (second subunit)” showed a rupture force of the subunit interface in assay [2] of 12 pN.

As for “single-chain S. cerevisiae PCNA with cysteines at D122 (first subunit) and D223 (third subunit)”, the rupture force of the subunit interface in assay [3] was 11 pN.

As to “single-chain S. cerevisiae PCNA with cysteines at K107 (first subunit) and F185 (third subunit)”, the rupture force of the subunit interface in assay [4] is 1.7 pN.
